Consider two molecules from publication PMC11931385, “Structural and functional analysis of cancer-associated missense variants in the retinoblastoma protein pocket domain” (The Journal of Biological Chemistry, 2025).

Common to all, as to experiment: fluorescence polarisation; 37 °C, after the 25 °C reading ramped over 7 min to 37 °C and 2 min incubation; unlabeled Rb^P against 1.5 nM TMR-E2F1^TD or 7.5 nM TMR-E7^LxCxE; 25 mM Tris pH 8.0, 200 mM NaCl, 1 mM DTT, 0.1% Tween-20; apparent Kd
Holding throughout (conditions): both partners purified

In experiment [1] the target is T1, Rb^P M704V (human, UniProt P06400 380-788, M704V).
T1 construct: also called variant 66
T1 sequence (looked up): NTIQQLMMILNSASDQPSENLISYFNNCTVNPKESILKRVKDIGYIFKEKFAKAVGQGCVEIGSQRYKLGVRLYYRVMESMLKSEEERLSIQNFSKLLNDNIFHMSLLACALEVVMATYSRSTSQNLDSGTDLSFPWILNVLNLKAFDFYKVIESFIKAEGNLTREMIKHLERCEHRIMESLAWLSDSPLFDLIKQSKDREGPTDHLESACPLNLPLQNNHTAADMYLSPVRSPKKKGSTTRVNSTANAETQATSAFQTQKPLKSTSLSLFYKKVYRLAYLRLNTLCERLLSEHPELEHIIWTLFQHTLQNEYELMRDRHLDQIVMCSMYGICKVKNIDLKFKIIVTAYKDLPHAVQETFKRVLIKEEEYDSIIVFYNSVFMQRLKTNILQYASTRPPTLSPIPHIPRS

The target of experiment [2] is T2, Rb^P R741H (human, UniProt P06400 380-788, R741H).
T2 construct: also called variant 69
T2 sequence (looked up): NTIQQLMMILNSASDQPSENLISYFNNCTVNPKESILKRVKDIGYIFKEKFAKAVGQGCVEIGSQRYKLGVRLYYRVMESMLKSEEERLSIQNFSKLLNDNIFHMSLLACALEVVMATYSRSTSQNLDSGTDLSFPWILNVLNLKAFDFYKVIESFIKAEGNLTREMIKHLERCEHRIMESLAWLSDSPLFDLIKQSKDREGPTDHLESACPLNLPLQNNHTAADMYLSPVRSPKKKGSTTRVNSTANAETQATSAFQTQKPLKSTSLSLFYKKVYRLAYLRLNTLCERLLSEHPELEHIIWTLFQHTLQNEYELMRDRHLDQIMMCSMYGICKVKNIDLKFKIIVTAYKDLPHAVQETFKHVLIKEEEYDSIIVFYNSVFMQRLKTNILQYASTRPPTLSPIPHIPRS

Experiment [3] concerns the target T3, Rb^P S443L (human, UniProt P06400 380-788, S443L).
T3 construct: also called variant 2
T3 sequence (looked up): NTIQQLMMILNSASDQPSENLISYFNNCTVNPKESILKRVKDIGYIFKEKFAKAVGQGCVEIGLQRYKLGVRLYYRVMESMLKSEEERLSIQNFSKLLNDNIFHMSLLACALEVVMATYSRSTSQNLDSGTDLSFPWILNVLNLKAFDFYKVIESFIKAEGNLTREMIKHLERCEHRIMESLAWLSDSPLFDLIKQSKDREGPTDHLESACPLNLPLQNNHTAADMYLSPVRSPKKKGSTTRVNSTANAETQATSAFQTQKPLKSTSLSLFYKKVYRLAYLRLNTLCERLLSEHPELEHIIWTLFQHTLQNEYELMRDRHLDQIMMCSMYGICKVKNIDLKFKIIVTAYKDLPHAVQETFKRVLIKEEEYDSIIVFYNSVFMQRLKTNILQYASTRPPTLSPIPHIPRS

For experiment [4], the target named is T4, Rb^P A490T (human, UniProt P06400 380-788, A490T).
T4 construct: also called variant 16
T4 sequence (looked up): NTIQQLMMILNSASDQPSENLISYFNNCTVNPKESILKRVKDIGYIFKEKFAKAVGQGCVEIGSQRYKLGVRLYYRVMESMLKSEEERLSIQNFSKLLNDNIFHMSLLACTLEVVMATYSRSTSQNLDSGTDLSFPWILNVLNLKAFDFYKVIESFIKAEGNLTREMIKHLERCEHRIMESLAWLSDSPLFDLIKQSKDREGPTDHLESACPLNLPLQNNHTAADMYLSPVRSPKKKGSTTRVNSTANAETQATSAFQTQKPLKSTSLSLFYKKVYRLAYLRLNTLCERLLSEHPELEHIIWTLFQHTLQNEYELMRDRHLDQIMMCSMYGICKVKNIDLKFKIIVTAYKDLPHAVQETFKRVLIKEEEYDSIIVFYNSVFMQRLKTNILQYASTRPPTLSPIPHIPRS

In experiment [5] the target is T5, Rb^P R656Q (human, UniProt P06400 380-788, R656Q).
T5 construct: also called variant 48
T5 sequence (looked up): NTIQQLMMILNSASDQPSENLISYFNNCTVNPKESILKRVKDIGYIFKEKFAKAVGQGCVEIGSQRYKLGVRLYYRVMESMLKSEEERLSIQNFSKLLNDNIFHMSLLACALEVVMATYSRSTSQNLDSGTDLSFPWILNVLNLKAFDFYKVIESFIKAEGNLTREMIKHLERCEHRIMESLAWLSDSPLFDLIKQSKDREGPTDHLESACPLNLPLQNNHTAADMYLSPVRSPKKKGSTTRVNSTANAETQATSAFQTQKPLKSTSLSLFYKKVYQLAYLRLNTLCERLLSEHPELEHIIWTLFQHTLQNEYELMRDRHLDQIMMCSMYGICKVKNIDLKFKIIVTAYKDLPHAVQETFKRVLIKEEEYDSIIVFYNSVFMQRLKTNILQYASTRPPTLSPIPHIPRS

No end group written: not given here. TMR = tetramethyl rhodamine dye

B1: TMR-E2F1^TD, peptide of the E2F1 transactivation domain (peptide)
peptide: {TMR}-GEGIRDLFDCDFGDLTPLD
notes: also called E2F^TD; source: synthetic peptide, bought: GenScript
For the molecule B1, the Kd came out at 129 nM in experiment [1]; 41 nM in experiment [2]; 55 nM in experiment [3]; 115 nM in experiment [4]; 325 nM in experiment [5].

B2: TMR-E7^LxCxE, LxCxE peptide of the E7 oncoprotein from HPV (peptide)
peptide: DLYCYEQLN
modifications: also: TMR label, position not given here
notes: source: synthetic peptide, bought: GenScript
Regarding B2, the Kd in experiment [1] came out at 51 nM; in experiment [2], 21 nM; in experiment [3], 21 nM; in experiment [4], 33 nM; in experiment [5] it was 14 nM.
